US20200123264A1 (Regeneron, published 2020)

T1: recombinant human LEPR extracellular domain expressed with a C-terminal mouse IgG2a Fc tag (human)
T1 construct: Dimeric construct; also called hLEPR.mFc; hLEPR-mFc
T1 chain: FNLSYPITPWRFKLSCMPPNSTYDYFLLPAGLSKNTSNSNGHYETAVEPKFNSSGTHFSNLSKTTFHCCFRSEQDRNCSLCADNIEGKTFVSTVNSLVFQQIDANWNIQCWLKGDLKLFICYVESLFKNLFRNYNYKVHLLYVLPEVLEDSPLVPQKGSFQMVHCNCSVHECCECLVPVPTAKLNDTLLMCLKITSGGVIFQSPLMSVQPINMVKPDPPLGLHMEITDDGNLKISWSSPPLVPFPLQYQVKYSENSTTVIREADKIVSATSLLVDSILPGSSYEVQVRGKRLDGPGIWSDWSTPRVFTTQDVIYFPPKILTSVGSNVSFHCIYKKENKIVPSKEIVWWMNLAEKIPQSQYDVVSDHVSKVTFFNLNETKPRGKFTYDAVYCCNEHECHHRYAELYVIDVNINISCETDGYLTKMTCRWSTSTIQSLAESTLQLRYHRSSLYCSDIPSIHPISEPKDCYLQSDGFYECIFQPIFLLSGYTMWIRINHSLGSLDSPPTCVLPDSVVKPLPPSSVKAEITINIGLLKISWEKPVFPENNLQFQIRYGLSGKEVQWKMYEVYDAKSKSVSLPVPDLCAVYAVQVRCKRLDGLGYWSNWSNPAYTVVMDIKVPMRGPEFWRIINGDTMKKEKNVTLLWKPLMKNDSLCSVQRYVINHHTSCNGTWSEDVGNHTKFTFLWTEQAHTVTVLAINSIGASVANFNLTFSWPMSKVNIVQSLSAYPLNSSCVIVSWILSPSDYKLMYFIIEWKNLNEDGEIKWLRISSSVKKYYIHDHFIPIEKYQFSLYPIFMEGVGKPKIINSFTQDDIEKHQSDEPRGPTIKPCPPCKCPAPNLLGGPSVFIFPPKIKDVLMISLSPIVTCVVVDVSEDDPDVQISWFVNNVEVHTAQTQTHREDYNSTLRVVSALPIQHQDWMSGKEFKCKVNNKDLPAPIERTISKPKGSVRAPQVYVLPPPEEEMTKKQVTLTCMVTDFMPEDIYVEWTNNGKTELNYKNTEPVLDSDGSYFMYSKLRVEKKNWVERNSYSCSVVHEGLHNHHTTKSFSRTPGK


How the values were obtained:
Assay in all cases: SPR, mAb captured, 37 C
[1] = molecular target: T1, recombinant human LEPR extracellular …
Procedure: (§1) Equilibrium dissociation constants (KD values) for antigen binding to purified anti-LEPR monoclonal antibodies of the invention were determined using a real-time surface plasmon resonance biosensor using a Biacore 4000 instrument. All binding studies were performed in running buffer containing 10 mM HEPES, 150 mM NaCl, 3 mM EDTA, and 0.05% v/v Surfactant Tween-20, pH 7.4 (HBS-ET running buffer) at 25° C. and 37° C. The Biacore sensor surface was first derivatized by amine coupling with a monoclonal mouse anti-human Fc antibody (GE, # BR-1008-39) to the capture anti-LEPR monoclonal antibodies. The LEPR reagents tested for binding to the anti-LEPR monoclonal antibodies included recombinant human LEPR extracellular domain expressed with a C-terminal myc-myc-hexahistidine tag (hLEPR.MMH; SEQ ID NO:90), recombinant cynomolgus monkey LEPR extracellular domain expressed with a C-terminal myc-myc-hexahistidine tag (mfLEPR.MMH; SEQ ID NO:93), recombinant mouse LEPR extracellular domain expressed with a C-terminal myc-myc-hexahistidine tag (mLEPR.MMH; SEQ ID NO:94), recombinant rat LEPR extracellular domain expressed with a C-terminal myc-myc-hexahistidine tag (rLEPR.MMH; SEQ ID NO:95), and recombinant human LEPR extracellular domain expressed with a C-terminal mouse IgG2a Fc tag (hLEPR.mFc; SEQ ID NO:91). LEPR constructs that include MMH tags are monomeric LEPR constructs, and LEPR constructs including an mFc tag are dimeric LEPR constructs. […] The dissociation of monoclonal antibody bound LEPR reagent was monitored for 10 minutes in HBS-ET running buffer. Kinetic association (10 and dissociation (10 rate constants were determined by fitting the real-time binding sensorgrams to a 1:1 binding model with mass transport limitation using Scrubber 2.0c curve-fitting software. Binding dissociation equilibrium constants (KD) and dissociative half-lives (t½) were calculated from the kinetic rate constants as: […]

[2] = molecular target: T2, recombinant human LEPR extracellular domain expressed with a C-terminal myc-myc-hexahistidine tag (human, UniProt P48357 22-839)
T2 construct: Monomeric construct; also called hLEPR.MMH; hLEPR-MMH
Procedure: as §1

[3] = molecular target: T3, recombinant cynomolgus monkey LEPR extracellular domain expressed with a C-terminal myc-myc-hexahistidine tag (cynomolgus monkey, UniProt Q9MYL0 22-837 (rhesus entry))
T3 construct: Monomeric construct; also called mfLEPR.MMH; mfLEPR-MMH
Procedure: as §1

[4] = molecular target: T4, recombinant rat LEPR extracellular domain expressed with a C-terminal myc-myc-hexahistidine tag (rat, UniProt Q62959 22-839)
T4 construct: Monomeric construct; also called rLEPR.MMH; rLEPR-MMH
Procedure: as §1

[5] = molecular target: T5, recombinant mouse LEPR extracellular domain expressed with a C-terminal myc-myc-hexahistidine tag (mouse, UniProt P48356 22-839)
T5 construct: Monomeric construct; also called mLEPR.MMH; mLEPR-MMH
Procedure: as §1

T4 sequence (Q62959 other isoform, or with tags, fused parts or gaps): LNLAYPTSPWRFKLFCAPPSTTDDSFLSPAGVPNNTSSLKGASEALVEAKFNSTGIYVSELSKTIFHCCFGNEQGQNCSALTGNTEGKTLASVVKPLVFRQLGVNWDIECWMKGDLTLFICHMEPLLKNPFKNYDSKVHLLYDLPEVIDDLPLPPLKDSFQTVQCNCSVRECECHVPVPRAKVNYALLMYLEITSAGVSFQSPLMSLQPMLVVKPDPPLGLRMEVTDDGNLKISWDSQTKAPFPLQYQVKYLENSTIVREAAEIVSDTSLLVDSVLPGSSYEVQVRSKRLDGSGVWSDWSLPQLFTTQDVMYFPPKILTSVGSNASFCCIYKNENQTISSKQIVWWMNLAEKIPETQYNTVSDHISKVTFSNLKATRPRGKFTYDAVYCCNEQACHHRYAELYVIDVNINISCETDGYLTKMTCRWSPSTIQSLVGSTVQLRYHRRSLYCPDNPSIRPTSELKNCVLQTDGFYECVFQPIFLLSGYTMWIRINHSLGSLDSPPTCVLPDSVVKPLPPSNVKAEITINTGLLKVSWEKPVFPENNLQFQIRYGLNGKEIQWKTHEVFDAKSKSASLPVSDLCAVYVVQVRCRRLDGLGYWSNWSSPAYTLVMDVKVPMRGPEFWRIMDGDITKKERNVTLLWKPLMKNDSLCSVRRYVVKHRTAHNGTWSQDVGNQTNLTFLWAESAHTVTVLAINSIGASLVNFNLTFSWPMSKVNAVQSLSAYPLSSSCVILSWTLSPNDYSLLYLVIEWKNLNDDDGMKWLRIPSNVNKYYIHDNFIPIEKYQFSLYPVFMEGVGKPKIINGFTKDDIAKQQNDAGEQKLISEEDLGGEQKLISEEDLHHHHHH
T5 sequence (P48356 other isoform, or with tags, fused parts or gaps): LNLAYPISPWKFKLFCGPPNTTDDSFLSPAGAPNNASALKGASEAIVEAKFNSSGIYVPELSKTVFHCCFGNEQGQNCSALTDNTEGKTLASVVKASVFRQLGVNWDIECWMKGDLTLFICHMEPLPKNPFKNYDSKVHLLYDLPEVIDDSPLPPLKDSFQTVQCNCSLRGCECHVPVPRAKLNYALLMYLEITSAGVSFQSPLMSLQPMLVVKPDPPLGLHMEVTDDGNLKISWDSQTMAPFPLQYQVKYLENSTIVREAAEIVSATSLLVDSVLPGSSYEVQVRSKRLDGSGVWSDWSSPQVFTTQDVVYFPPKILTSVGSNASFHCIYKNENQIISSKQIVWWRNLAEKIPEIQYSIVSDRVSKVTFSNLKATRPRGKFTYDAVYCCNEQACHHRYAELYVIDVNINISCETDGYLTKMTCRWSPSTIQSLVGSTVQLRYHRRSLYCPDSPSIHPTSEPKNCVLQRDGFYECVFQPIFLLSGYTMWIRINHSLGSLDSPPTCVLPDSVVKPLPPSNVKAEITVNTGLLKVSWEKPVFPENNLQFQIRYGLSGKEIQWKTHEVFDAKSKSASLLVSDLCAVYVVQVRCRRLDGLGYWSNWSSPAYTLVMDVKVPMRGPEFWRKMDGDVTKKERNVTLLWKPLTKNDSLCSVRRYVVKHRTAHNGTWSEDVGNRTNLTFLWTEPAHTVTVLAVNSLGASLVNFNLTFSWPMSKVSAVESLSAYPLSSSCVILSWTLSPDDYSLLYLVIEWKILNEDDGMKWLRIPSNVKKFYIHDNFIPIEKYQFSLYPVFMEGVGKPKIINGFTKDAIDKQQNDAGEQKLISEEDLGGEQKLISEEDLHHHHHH

Row | 100 nM hLEPR-mFc Bound (RU) [1] [RU] | Kd [1] [nM] | koff [1] [s⁻¹] | kon [1] [M⁻¹ s⁻¹] | t½ [1] [min] | 100 nM hLEPR-MMH Bound (RU) [2] [RU] | Kd [2] [nM] | koff [2] [s⁻¹] | kon [2] [M⁻¹ s⁻¹] | t½ [2] [min] | 100 nM mfLEPR-MMH Bound (RU) [3] [RU] | Kd [3] [nM] | koff [3] [s⁻¹] | kon [3] [M⁻¹ s⁻¹] | t½ [3] [min] | 100 nM rLEPR-MMH Bound (RU) [4] [RU] | Kd [4] [nM] | koff [4] [s⁻¹] | kon [4] [M⁻¹ s⁻¹] | 100 nM mLEPR-MMH Bound (RU) [5] [RU] | Binder | also measured
1 | 84 | 4.26 | 0.000543 | 128000 | 21 | 31 | 248 | 0.0114 | 45800 | 1 | 28 | 261 | 0.0337 | 129000 | 0.3 |  |  |  |  |  | H4H18462P2 (antibody, human IgG4, V domains shown, H4H prefix: human IgG4 Fc) VH: EVQLVESGGDLVQPGRSLRLSCAASGFTFSSFAMSWVRQAPGRGLEWVSSLSDSGDNTYYADSVKGRFTISRDNSKNTLYLQMNNLRAEDTAVYYCAKDLFSGWLFHGFDVWGQGTMVTVSS VL: not shown | 
2 | 166 | 1.27 | 0.000704 | 556000 | 16 | 108 | 24.8 | 0.00855 | 345000 | 1.4 | 117 | 30 | 0.0104 | 347000 | 1.1 | 16 | 580 | 0.0175 | 30200 | -1 | H4H18457P2 (antibody, human IgG4, V domains shown, H4H prefix: human IgG4 Fc) VH: EVQLVESGGSVVRPGESLRLSCAASGFTFDDYGMSWVRQAPGKGLEWVSGISWNGGITVYADSVKGRFTVSRDNAKNSLYLQMNSLRAEDTALYHCARARYGGADYWGQGTLVTVSS VL: not shown | t½ [4]: 0.7 min
3 | 67 | 15.1 | 0.000923 | 60900 | 13 | 19 | 202 | 0.00469 | 23200 | 2.5 | 14 | 169 | 0.00792 | 46900 | 1.5 | 0 |  |  |  | -1 | H4H18439P2 (antibody, human IgG4, V domains shown, H4H prefix: human IgG4 Fc) VH: QLQLQESGPGLVKPSETLSLTCIVSGGDITSSSYYWNWIRQPPGKGLEWIGNIYYSGSTNYNPSLKSRVTISIDTSKSQFSLKLRSVTAADTAVYYCARLLRYFDWSKGYLDYWGQGTLVTVSS VL: not shown | 
4 | 88 | 4.3 | 0.000556 | 129000 | 21 | 55 | 77.6 | 0.00884 | 114000 | 1.3 | 58 | 147 | 0.0127 | 86900 | 0.9 | 10 | 629 | 0.0193 | 30700 | 6 | H4H18437P2 (antibody, human IgG4, V domains shown, H4H prefix: human IgG4 Fc) VH: QVQLVESGGGVVQPGRSLRLSCAASGFTFSSYGIHWVRQAPGKGLEWVAVISYDGNNKYYADSVKGRFTISRDNSKNTLYLQMNSLRAEDTAVYYCAKDLFLEWLFHGMGVWGQGTTVTVSS VL: not shown | t½ [4]: 0.6 min; Kd [5]: 1160 nM; koff [5]: 0.0133 s⁻¹; kon [5]: 11500 M⁻¹ s⁻¹; t½ [5]: 0.9 min
5 | 105 | 3.31 | 0.00044 | 133000 | 26 | 99 | 11.7 | 0.000812 | 69500 | 14 | 142 | 7.72 | 0.0011 | 143000 | 10 | 9 | 352 | 0.0328 | 93200 | -1 | H4H17322P2 (antibody, human IgG4, V domains shown, H4H prefix: human IgG4 Fc) VH: QLQLQESGPGLVKPSETLSLTCTVSGASISSSRFYGGWIRQPPGKGLEWIGDIYYSGNTYYNPSLQSRVTISVDTSKNQFSLKLSSVTAADTAVYYCARHLMITFGGLIVEGFDIWGQGTMVTVSS VL: not shown | t½ [4]: 0.4 min
6 | 181 | 0.527 | 0.000112 | 212000 | 103 | 95 | 27.3 | 0.00173 | 63400 | 7 | 66 | 101 | 0.00724 | 71500 | 1.6 | 0 |  |  |  | -1 | H4H18440P2 (antibody, human IgG4, V domains shown, H4H prefix: human IgG4 Fc) VH: QVQLVESGGGMVKPGGSLRLSCAASGFTFSDYYMSWIRQAPGKGLEWISHISITGSTIYYADSVKGRFTISRDNAKNSLYLEMNRLRDEDTAVYYCTRDEPDIVLVRYGMDVWGQGTTVTVSS VL: not shown | 
7 | 52 | 8.86 | 0.00052 | 58700 | 22 | 26 | 148 | 0.00674 | 45500 | 1.7 | 27 | 164 | 0.0138 | 84300 | 0.8 | 6 | 771 | 0.0252 | 32600 | 3 | H4H18466P2 (antibody, human IgG4, V domains shown, H4H prefix: human IgG4 Fc) VH: EVQLVESGGGLVQPGGSLRLSCTASGFTFSSYGLHWVRQAPGKGLEYVSSINHNGGSKYYADSVKGRFTISRDNSKNTLFLQMGSLKTEDMAVYYCARDLFLEWLFHGFDIWGQGTMVTVSS VL: not shown | t½ [4]: 0.5 min
8 | 105 | 1.28 | 0.000517 | 404000 | 22 | 68 | 20.5 | 0.00315 | 154000 | 3.7 | 13 | 215 | 0.00841 | 39200 | 1.4 | 1 |  |  |  | 1 | H4H18464P2 (antibody, human IgG4, V domains shown, H4H prefix: human IgG4 Fc) VH: QVQLVQSGPEVKKPGASVKVSCKGSGYTFSWYGISWIRQAPGHGLEWMGWISASSGNTRFAQKVQGRLTMTTDTSTSTAYMELRSLRSDDTAVYYCARTGTRPFDYWGQGTLVTVSS VL: not shown | 
